Reference: the DeepSol protein solubility set

Assay: soluble on expression in E. coli; label from the status in PepcDB or PDB records
For “MGSDKIHHHHHHMPRKTATATKLFVLDTNVLMHDPTSLFRFEEHDVYVPIATLEELDQHKKGMTEVSRNARQASRFLDEIVRKLDSIDEGVPLAPHSHNAATGRLFLQTQAISGDIPVNLPTSKVDNQILGVVLFLSRHHTKRQVILVSKDINMRIKARALGLPAEDYFNDKVLEDTDLLYPGLRELPADFWDTHGKGMESWQANGHTYYRVKGPLVASLLPNEFVFQEGASPLYAKVLKVEGKHAEMVTIRDFGHHKNNVWGITARNREQNFALNVLMDPEIDFVSLLGQAGTGKTLLTLAAGLAQVLDKKIYSEIIMTRVTVPVGEDIGFLPGTEEEKMTPWMGALEDNLDVLNKSDDEGGDWGRAATQDLIRSRIKVKSLNFMRGRTFLNKFLIIDEAQNLTPKQMKTLITRAGPGTKVVCLGNIAQIDTPYLTEGSSGLTYVVDHFKGWPHNGHVTLQRGERSRLADYAAEVL”, the “soluble on expression in E. coli” value was “not soluble”.
With “MGSDKIHHHHHHMPSLKLSLTGLQIIKQARSEKGWTIDNPCWLEQASQVLEPGRNWENAEVFAAGVSLATWKRFLKGDAIDASVFKAFCQVLGLNWQDLVERPPNSFIIGTTQIPNIPLFFGRRYELTTLSQAIEQGTRLIAITGIGGMGKTALATKLVESRSSHFSQTLWFSFHHNPPAKDKIPTLVPQTLMVFDGWDGILGGNRGGQYRPEYEPYADFLRTVVQTTHTSCVIITSREQPEGLNILGAGGAVIFPLGGLMEGAIELLQHHQLTFNAQQWITLVNQYGGNPLFLNMAANFIHELFAGDVGEFLASGTLVAGEFAPLVTQWLKQISTLEQILIKSLATKVQGFTRQEILLHLASRAANGDILAALLSLKRRGLIETMKDGELERFYLQPVILKCVQRLF” the “soluble on expression in E. coli” value was “not soluble”.
For “MGSDKIHHHHHHMPSTNPFLTLPYEPAFASLGSEFSDPVEAATFPAHQLRFRNDRLLPILGLDPATVTDEHFIEAFGRFQGRSPLLAMRYHGYQFGIYNPDLGDGRGFLYGQVRGRNGWLYDFGTKGSGRTPYSRGGDGKLTLKGGVREVLASEFLQRLGVRTGRCLSLIETGEELWRGDEPSPTRSSVMVRFNRTHIRFGTFERLHYFKRADLVRQLLDHVIATYYSHLLGDPEADAKFYAELTERTADLAAQWMAAGFCHAVLNTDNLSIVGESFDYGPWAFLDRFDPKFTAAYFDHSGRYRYENQPGICQLNLELLQVPLGMVMSAADLEAGIAGFGDRYQATYSRLMLRRLGFEADQLHSAIADDLIITTLQLLLRAPIGYNEFFARLRAQFQPSWRSDLSAILPDWITTDLEALPEAQWQGWRDRYHQLLTHLPESQLPLIQQQLAQANPEIAPIRPVVESVWDPIAIDDNWEPLEALLNRWRHDGDGAADGVVVPNAN”, the “soluble on expression in E. coli” value was “not soluble”.
In the case of “MGSDKIHHHHHHMPTLPMPSFLSSYWESSFNLKQHIQEFLQLDAEILETKLEFGQQQMAELGHKDFDWEQATAFYRDKVGEVYLFELGAWHLASHDYIGDTLRLIADHAHGCVLDFGGGIGTHAIGAALCPHVEQVVYCDINPINFDFVKYRAEKLGLSEKIIFCVEIPPQKTFDTIMSFDVLEHLPDPSQQLLEFHQILADEGKMILNWHFFKGFNQEHPFHLDDPQAIDTFFKTIQSNCLEVFHPYHITARCYRKWN”, the “soluble on expression in E. coli” value is reported as “not soluble”.
In the case of “MGSDKIHHHHHHMPTPTRWQEKLPEAATTYLEGRRLDEVECVISDLPGIARGKAVPASKFAKQDYFYLPDSIFYQTITGDWAEAADEDGWIEKDMLLRPDMSTATAAPWTGDWTLQVIHDAYDRDGNPIPFSPRNVLKHVVSLYEAQGWKPVVAPEMEFYLVARNVDPARDIQPMMGRSGRPAAARQAYSMTAVDEFGPVIDDIYDFAEAQGFEIDGITQEGGAGQLEINLRHGSPVKLADEVFYFKRLIREAALRHDCFATFMAKPIADEPGSAMHIHHSVIDIESGENIFSGPQGGETDAFYHFIGGLQNHLPAGLAVMAPYVNSYRRYVKNHAAPINLEWARDNRTTGIRVPLSSSASRRVENRIAGMDCNPYLGIAVSLACGYLGLMEERRPTRQFKGDAYEGEGDFPQVMGQALDLFDESKALHEVLGPEFARVYSTVKRAEYEEFLQVISPWEREHLLLNV”, the “soluble on expression in E. coli” value is reported as “not soluble”.
For “MGSDKIHHHHHHMPVMFQQMQYFIAIVNNHSFTQAAVDCHISQSAISQQMKELESQLGVKLLNRKGRSFEVTEAGQYFYIHSQDILADVDQLIKKTIKIEKNDEVELRVGYLRSFGTAEFLQTVSKFTQEFPKVKIKISSGTHEELYELLQTGKIDLNFSDQRRALSNEYQNEFLTASEFMVAVNNSLPVETQKIDVADLVDIPCILIIDGHQQVSEEEYYRNVLGVKSEFVIAKSYDEAQMLIASNQGYLIINQRMRTQLDKDIVKMISLVKGDRKLIQNYYAYWQANNSGYYIETFAELLKQTFA”, the “soluble on expression in E. coli” value was “not soluble”.
For “MGSDKIHHHHHHMQALRKCYGIVGADDIVSEMKTWQVTSNDPHEGLTKWADGLDEAFVQLEPVATTGDGFYGHIQQTSTAELDVSVVTSTGHEIRRLDRHIRHRSADLLYVNILGRGRSEVSQRDTVVAAPMDVSIVDPRAPYSIRQEAPFQLVSIAVPPDWVEREARHCHFLSRTAAGRELSSVVWGLAKMLLAIKPDQDGLATSLAQQIHHSLALLPEMAGSDATPRVSVAMLQSYVQRHFSQPDLRAEHLARQFGISVRRVHQLFEPTGHTVSEFINDLRLARAADCLGDAALARRTISEIAWQVGYSDPSYFTRRFKRRYGCSPRAYRAAHHPAPIARLS”, the “soluble on expression in E. coli” value was “not soluble”.
With “MGSDKIHHHHHHMQDDRLFPYGHARGAGWREALSSALEMAGPRVRGGTLGFLYVTDSFESDLPDILSAVREQTGVPHWTGCVGAGICATAQEYLDEPALAFMVTDFPETEFRLFAGMGPYRTGKSWPTGPGRPPYFAIVHGDSQTPDLPDLVRDFAGQMGSGFITGGICSSRTDGAQLVDEVVHGGLSGVTFSENIAVATRLTQGCSPIGPIHHINEAHNNVISRLDDRPALDVFNDETCDILSRDLQRAAGFIFVAMPVKNDDRGDYMVRTLVGIDIERKLLAIGEYAEAGQSLMFCKRDSGTAGEDLERMLSDISRLADGRKIRGGLYFTCVWRGQNLFGPDSAELRMIRDGLGDFPLVGFFANAEISHDKIYGYTGVLTLFLDAPTS” the “soluble on expression in E. coli” value was “not soluble”.
In the case of “MGSDKIHHHHHHMQGVPEHFTDERDYAQFRHLPTLPGIELYHAHICRYAFEPHTHEAFGIGTIDDGAEQFRYRGAKHIAPVDSLVLMNPDELHTGESATEDGWRYRMIYIPPDVLESVSGEKGWWFTDVVRHDPATARQLAMTLAALWQTTDPLASESLLLSLIALFRPHAHIAQRQVVEPFHRFDVVKAYLRENFAHTITLKELAALVSLSPYHFLRQFKTQFHVTPHQMLMAIRLYEAKQMLTRGMAAAHVALAVGLTDQAHLTRTFAQRYGVTPIRYQKQVYPTLR”, the “soluble on expression in E. coli” value is reported as “not soluble”.
With “MGSDKIHHHHHHMQIESFKSLLPKYKCIFFDAFGVLKTYNGLLPGIENTFDYLKAQGQDYYIVTNDASRSPEQLADSYHKLGLFSITADKIISSGMITKEYIDLKVDGGIVAYLGTANSANYLVSDGIKMLPVSAIDDSNIGEVNALVLLDDEGFNWFHDLNKTVNLLRKRTIPAIVANTDNTYPLTKTDVAIAIGGVATMIESILGRRFIRFGKPDSQMFMFAYDMLRQKMEISKREILMVGDTLHTDILGGNKFGLDTALVLTGNTRIDDAETKIKSTGIVPTHICESAVIEL” the “soluble on expression in E. coli” value was “not soluble”.
In the case of “MGSDKIHHHHHHMQKLGIFIYSLGSGGAERVVATLLPILSLKFEVHLILMNDKISYEIPECQIHFLECSKPSENPILKFLKLPFLALKYKKLCRNLGIDTEFVFLNRPNYIALMARMFGNKTRLVINECTTPSVMYMKNNFNSLVNKFLISLLYPKADLILPNSKGNLEDLVQNFSISPKKCEILYNAIDLENIGQKALEDIALKDKFILSVGRLDKGKNHALLIRAYARLKTDLKLVILGEGVLKDELLALIKELNLEEKVLLLGFDNNPYKYMAKCEFFAFASVFEGFSNVLIESLACSCAVVCTDHKSGARELFGDDEFGLLVEVDNENSMFQGLKTMLEDDKLRKAYKNKAKTRAKAFDKVKIARDALKYLLG”, the “soluble on expression in E. coli” value is reported as “not soluble”.
For “MGSDKIHHHHHHMQKTPALLSDIGNNEDASVYQISPDLALVQTLDFITPIVDSAYHFGAIAAANALSDVFAMGAEVINALNIVGFDTCNHDLNILKELLEGANDKVKECNALVVGGHTIESTELFFGLSVTGKVHPSKFIANNTSKIGDCIILTKPLGTGILSTALKAQMLNQKHLDIMLKNMIELNYKASQIALKFHPSAMSDVTGFGLLGHLKEMLNKNISFEIFESELPFLDGVKEYFNMGLIPAGAYKNLEFIKELTPDLNEEKLLLCDPQTSGGLLISISEKDSLECLKKLEDENIQAKIIAKVVNKQENDIIIS”, the “soluble on expression in E. coli” value was “not soluble”.
